From PMC5719400, “Engineering an aldehyde dehydrogenase toward its substrates, 3-hydroxypropanal and NAD^+, for enhancing the production of 3-hydroxypropionic acid” (Scientific Reports, 2017)

What was measured:
Test in all cases: purified protein
Type in all cases: biochemical, Azospirillum brasilense
purified protein [1] = substrate: NC(=O)c1ccc[n+]([C@@H]2O[C@H](COP(=O)(O)OP(=O)(O)OC[C@H]3O[C@@H](n4cnc5c(N)ncnc54)[C@H](O)[C@@H]3O)[C@@H](O)[C@H]2O)c1; settings: 3 mM 3-HPA, 100 mM phosphate pH 8, 25 °C, varied: cofactor
Source text: (§1) (α-ketoglutaric semialdehyde dehydrogenase)

purified protein [2] = substrate: O=CCCO; settings: 2 mM NAD+, 100 mM phosphate pH 8, 25 °C
Source text: as §1

purified protein [3] = substrate: NC(=O)c1ccc[n+]([C@@H]2O[C@H](COP(=O)(O)OP(=O)(O)OC[C@H]3O[C@@H](n4cnc5c(N)ncnc54)[C@H](OP(=O)(O)O)[C@@H]3O)[C@@H](O)[C@H]2O)c1; settings: 3 mM 3-HPA, 100 mM phosphate pH 8, 25 °C, varied: cofactor
Source text: as §1

B1: KGSADH (α-ketoglutaric semialdehyde dehydrogenase) (Azospirillum brasilense; A337R/A442P/P444T/R334Q) (protein)
chain: ANVTYTDTQLLIDGEWVDAASGKTIDVVNPATGKPIGRVAHAGIADLDRALAAAQSGFEAWRKVPAHERAATMRKAAALVRERADAIAQLMTQEQGKPLTEARVEVLSAADIIEWFADEGRRVYGRIVPPRNLGAQQTVVKEPVGPVAAFTPWNFPVNQVVRKLSAALATGCSFLVKAPEETPASPAALLRAFVDAGVPAGVIGLVYGDPAEISSYLIPHPVIRKVTFTGSTPVGKQLASLAGLHMKRATMELGGHAPVIVAEDADVALAVKAAGGAKFRNAGQVCISPTRFLVHNSIRDEFTRALVKHAEGLKVGNGLEEGTTLGALANPRQLTRMASVIDNARKVGASIETGGERIGSEGNFFAPTVIANVPLDADVFNNEPFGPVAAIRGFDKLEEAIAEANRLPFGLAGYAFTRSFANVHLLTQRLEVGMLWINQPPTTWPEMPFGGVKDSGYGSEGGPEALEPYLVTKSVTVMAV
notes: N-terminal His6-tag (pQE80L), expressed in E. coli DH10β, Ni-NTA purified; catalytic residues E253 and C287
- Km (purified protein [1]; variant 106-QR): 0.025(±0.0045) mM
- kcat (purified protein [1]; variant 106-QR): 4.8 ± 0.93 s⁻¹
- kcat/Km (purified protein [1]; variant 106-QR): 192000 ± 72500 M⁻¹ s⁻¹
- Km (purified protein [2]; variant 106-QR): 0.29(±0.062) mM
- kcat (purified protein [2]; variant 106-QR): 5 ± 1.2 s⁻¹
- kcat/Km (purified protein [2]; variant 106-QR): 17000 ± 7800 M⁻¹ s⁻¹

B2: KGSADH (α-ketoglutaric semialdehyde dehydrogenase) (Azospirillum brasilense; A337R/A442P/K273A/P444A/R334Q/T443E) (protein)
chain: ANVTYTDTQLLIDGEWVDAASGKTIDVVNPATGKPIGRVAHAGIADLDRALAAAQSGFEAWRKVPAHERAATMRKAAALVRERADAIAQLMTQEQGKPLTEARVEVLSAADIIEWFADEGRRVYGRIVPPRNLGAQQTVVKEPVGPVAAFTPWNFPVNQVVRKLSAALATGCSFLVKAPEETPASPAALLRAFVDAGVPAGVIGLVYGDPAEISSYLIPHPVIRKVTFTGSTPVGKQLASLAGLHMKRATMELGGHAPVIVAEDADVALAVAAAGGAKFRNAGQVCISPTRFLVHNSIRDEFTRALVKHAEGLKVGNGLEEGTTLGALANPRQLTRMASVIDNARKVGASIETGGERIGSEGNFFAPTVIANVPLDADVFNNEPFGPVAAIRGFDKLEEAIAEANRLPFGLAGYAFTRSFANVHLLTQRLEVGMLWINQPPEAWPEMPFGGVKDSGYGSEGGPEALEPYLVTKSVTVMAV
notes: as for B1
- Km (purified protein [1]; variant 108-QR): 0.037(±0.0024) mM
- kcat (purified protein [1]; variant 108-QR): 6.1 ± 0.64 s⁻¹
- kcat/Km (purified protein [1]; variant 108-QR): 165000 ± 28000 M⁻¹ s⁻¹
- Km (purified protein [2]; variant 108-QR): 0.17(±0.032) mM
- kcat (purified protein [2]; variant 108-QR): 6 ± 1.3 s⁻¹
- kcat/Km (purified protein [2]; variant 108-QR): 35000 ± 14000 M⁻¹ s⁻¹
- Km (purified protein [3]; variant 108-QR): 0.66(±0.065) mM
- kcat (purified protein [3]; variant 108-QR): 4.5 ± 1.1 s⁻¹
- kcat/Km (purified protein [3]; variant 108-QR): 6900 ± 2300 M⁻¹ s⁻¹

B3: KGSADH (α-ketoglutaric semialdehyde dehydrogenase) (Azospirillum brasilense) (protein)
chain: ANVTYTDTQLLIDGEWVDAASGKTIDVVNPATGKPIGRVAHAGIADLDRALAAAQSGFEAWRKVPAHERAATMRKAAALVRERADAIAQLMTQEQGKPLTEARVEVLSAADIIEWFADEGRRVYGRIVPPRNLGAQQTVVKEPVGPVAAFTPWNFPVNQVVRKLSAALATGCSFLVKAPEETPASPAALLRAFVDAGVPAGVIGLVYGDPAEISSYLIPHPVIRKVTFTGSTPVGKQLASLAGLHMKRATMELGGHAPVIVAEDADVALAVKAAGGAKFRNAGQVCISPTRFLVHNSIRDEFTRALVKHAEGLKVGNGLEEGTTLGALANPRRLTAMASVIDNARKVGASIETGGERIGSEGNFFAPTVIANVPLDADVFNNEPFGPVAAIRGFDKLEEAIAEANRLPFGLAGYAFTRSFANVHLLTQRLEVGMLWINQPATPWPEMPFGGVKDSGYGSEGGPEALEPYLVTKSVTVMAV
notes: as for B1
- Km (purified protein [1]): 0.21(±0.018) mM
- kcat (purified protein [1]): 12 ± 1.7 s⁻¹
- kcat/Km (purified protein [1]): 57000 ± 13000 M⁻¹ s⁻¹
- Km (purified protein [2]): 1.6(±0.14) mM
- kcat (purified protein [2]): 15 ± 2.1 s⁻¹
- kcat/Km (purified protein [2]): 9000 ± 2100 M⁻¹ s⁻¹
- Km (purified protein [3]): 2.3(±0.033) mM
- kcat (purified protein [3]): 8.6 ± 0.84 s⁻¹
- kcat/Km (purified protein [3]): 3700 ± 420 M⁻¹ s⁻¹

B4: KGSADH (α-ketoglutaric semialdehyde dehydrogenase) (Azospirillum brasilense; A337R/R334Q) (protein)
chain: ANVTYTDTQLLIDGEWVDAASGKTIDVVNPATGKPIGRVAHAGIADLDRALAAAQSGFEAWRKVPAHERAATMRKAAALVRERADAIAQLMTQEQGKPLTEARVEVLSAADIIEWFADEGRRVYGRIVPPRNLGAQQTVVKEPVGPVAAFTPWNFPVNQVVRKLSAALATGCSFLVKAPEETPASPAALLRAFVDAGVPAGVIGLVYGDPAEISSYLIPHPVIRKVTFTGSTPVGKQLASLAGLHMKRATMELGGHAPVIVAEDADVALAVKAAGGAKFRNAGQVCISPTRFLVHNSIRDEFTRALVKHAEGLKVGNGLEEGTTLGALANPRQLTRMASVIDNARKVGASIETGGERIGSEGNFFAPTVIANVPLDADVFNNEPFGPVAAIRGFDKLEEAIAEANRLPFGLAGYAFTRSFANVHLLTQRLEVGMLWINQPATPWPEMPFGGVKDSGYGSEGGPEALEPYLVTKSVTVMAV
notes: as for B1
- Km (purified protein [1]; variant WT-QR): 0.044(±0.0033) mM
- kcat (purified protein [1]; variant WT-QR): 7.9 ± 0.75 s⁻¹
- kcat/Km (purified protein [1]; variant WT-QR): 180000 ± 30500 M⁻¹ s⁻¹
- Km (purified protein [2]; variant WT-QR): 0.55(±0.13) mM
- kcat (purified protein [2]; variant WT-QR): 6.8 ± 0.35 s⁻¹
- kcat/Km (purified protein [2]; variant WT-QR): 12000 ± 3600 M⁻¹ s⁻¹
- Km (purified protein [3]; variant WT-QR): 0.81(±0.15) mM
- kcat (purified protein [3]; variant WT-QR): 4.4 ± 1.4 s⁻¹
- kcat/Km (purified protein [3]; variant WT-QR): 5400 ± 2700 M⁻¹ s⁻¹

B5: KGSADH (α-ketoglutaric semialdehyde dehydrogenase) (Azospirillum brasilense; A110S/A337R/A442P/K273A/P444T/R334Q) (protein)
chain: ANVTYTDTQLLIDGEWVDAASGKTIDVVNPATGKPIGRVAHAGIADLDRALAAAQSGFEAWRKVPAHERAATMRKAAALVRERADAIAQLMTQEQGKPLTEARVEVLSSADIIEWFADEGRRVYGRIVPPRNLGAQQTVVKEPVGPVAAFTPWNFPVNQVVRKLSAALATGCSFLVKAPEETPASPAALLRAFVDAGVPAGVIGLVYGDPAEISSYLIPHPVIRKVTFTGSTPVGKQLASLAGLHMKRATMELGGHAPVIVAEDADVALAVAAAGGAKFRNAGQVCISPTRFLVHNSIRDEFTRALVKHAEGLKVGNGLEEGTTLGALANPRQLTRMASVIDNARKVGASIETGGERIGSEGNFFAPTVIANVPLDADVFNNEPFGPVAAIRGFDKLEEAIAEANRLPFGLAGYAFTRSFANVHLLTQRLEVGMLWINQPPTTWPEMPFGGVKDSGYGSEGGPEALEPYLVTKSVTVMAV
notes: as for B1
- Km (purified protein [1]; variant 104-QR): 0.033(±0.0089) mM
- kcat (purified protein [1]; variant 104-QR): 5.9 ± 0.61 s⁻¹
- kcat/Km (purified protein [1]; variant 104-QR): 179000 ± 66700 M⁻¹ s⁻¹
- Km (purified protein [2]; variant 104-QR): 0.43(±0.094) mM
- kcat (purified protein [2]; variant 104-QR): 6.7 ± 0.64 s⁻¹
- kcat/Km (purified protein [2]; variant 104-QR): 16000 ± 4900 M⁻¹ s⁻¹
